# ± gives the standard error. For some assays here: Fewer inactive variants are shown than the library holds.
# B1: glmS ribozyme (parent)
# chain: AUAAAAGCGCCAGAACUACAGAAAUGUAGUUGACGAGGAGGAGGUUUAUCGAAUUUUCGGCGGAUGCCUCCAAA
# How the values were obtained:
# Conditions in all cases: with glucosamine-6-phosphate
# glucosamine-6-phosphate [1] = variants of: B1; assay: kcat; higher = faster cleavage; RNA array
# Method in brief: (§1)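 Barcoded ribozyme variants on sequenced MiSeq chips were transcribed in situ by E. coli RNA polymerase and followed at 37 °C through a hybridised Cy3 probe. Glucosamine-6-phosphate at 40 μM to 10 mM in HEPES/KCl/Mg(OAc)2 buffer was flowed in, and tiles were imaged over ~14 h. Signals were normalised to baseline and to non-cleaving reference variants, and per-tile medians were fit to one- or two-exponential decays to give kobs. Weighted Michaelis–Menten fits across concentrations gave kcat and KM.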
# glucosamine-6-phosphate [2] = variants of: B1; assay: KM; higher = weaker cofactor use; RNA array
# Method in brief: as §1
# glucosamine-6-phosphate [3] = variants of: B1; assay: self-cleavage kobs at 40 uM GlcN6P; higher = faster cleavage; RNA array
# Method in brief: as §1
# glucosamine-6-phosphate [4] = variants of: B1; assay: self-cleavage kobs at 160 uM GlcN6P; higher = faster cleavage; RNA array
# Method in brief: as §1
# glucosamine-6-phosphate [5] = variants of: B1; assay: self-cleavage kobs at 10000 uM GlcN6P; higher = faster cleavage; RNA array
# Method in brief: as §1
# glucosamine-6-phosphate [6] = variants of: B1; assay: self-cleavage kobs at 640 uM GlcN6P; higher = faster cleavage; RNA array
# Method in brief: as §1
# glucosamine-6-phosphate [7] = variants of: B1; assay: self-cleavage kobs at 2500 uM GlcN6P; higher = faster cleavage; RNA array
# Method in brief: as §1
variant,measurement,setting,value
U45C C67U C68A,kcat,glucosamine-6-phosphate [1],4.01e-05 ± 3.3e-06 s⁻¹
same,KM,glucosamine-6-phosphate [2],533 ± 230 µM
G38U G63A,kcat,glucosamine-6-phosphate [1],< 1e-05 s⁻¹
same,self-cleavage kobs at 40 uM GlcN6P,glucosamine-6-phosphate [3],< 1e-05 s⁻¹
same,self-cleavage kobs at 160 uM GlcN6P,glucosamine-6-phosphate [4],< 1e-05 s⁻¹
G62A C68U,kcat,glucosamine-6-phosphate [1],< 1e-05 s⁻¹
same,self-cleavage kobs at 10000 uM GlcN6P,glucosamine-6-phosphate [5],< 1e-05 s⁻¹
U45A A53C,kcat,glucosamine-6-phosphate [1],0.0341 ± 0.0078 s⁻¹
same,KM,glucosamine-6-phosphate [2],3160 ± 860 µM
same,self-cleavage kobs at 40 uM GlcN6P,glucosamine-6-phosphate [3],0.000466 ± 8.3e-05 s⁻¹
same,self-cleavage kobs at 160 uM GlcN6P,glucosamine-6-phosphate [4],0.00139 ± 0.00027 s⁻¹
same,self-cleavage kobs at 640 uM GlcN6P,glucosamine-6-phosphate [6],0.00608 ± 0.00081 s⁻¹
same,self-cleavage kobs at 2500 uM GlcN6P,glucosamine-6-phosphate [7],0.017 ± 0.0047 s⁻¹
same,self-cleavage kobs at 10000 uM GlcN6P,glucosamine-6-phosphate [5],0.0239 ± 0.0068 s⁻¹
G37C U69G,kcat,glucosamine-6-phosphate [1],2.05e-05 ± 4e-06 s⁻¹
C10A C67G,kcat,glucosamine-6-phosphate [1],8.97e-05 ± 1.7e-05 s⁻¹
same,self-cleavage kobs at 40 uM GlcN6P,glucosamine-6-phosphate [3],2.69e-05 ± 1.1e-05 s⁻¹
same,self-cleavage kobs at 640 uM GlcN6P,glucosamine-6-phosphate [6],8.76e-05 ± 1.4e-05 s⁻¹
same,self-cleavage kobs at 2500 uM GlcN6P,glucosamine-6-phosphate [7],7.6e-05 ± 1.7e-05 s⁻¹
G43U C67A,kcat,glucosamine-6-phosphate [1],0.00389 ± 0.00036 s⁻¹
same,KM,glucosamine-6-phosphate [2],1310 ± 180 µM
same,self-cleavage kobs at 40 uM GlcN6P,glucosamine-6-phosphate [3],0.000122 ± 1.7e-05 s⁻¹
same,self-cleavage kobs at 160 uM GlcN6P,glucosamine-6-phosphate [4],0.000392 ± 8.9e-05 s⁻¹
same,self-cleavage kobs at 640 uM GlcN6P,glucosamine-6-phosphate [6],0.00129 ± 0.00023 s⁻¹
same,self-cleavage kobs at 2500 uM GlcN6P,glucosamine-6-phosphate [7],0.00219 ± 0.00043 s⁻¹
same,self-cleavage kobs at 10000 uM GlcN6P,glucosamine-6-phosphate [5],0.00371 ± 0.0005 s⁻¹
U65G C67U C68U,kcat,glucosamine-6-phosphate [1],9.98e-05 ± 3.8e-05 s⁻¹
same,self-cleavage kobs at 2500 uM GlcN6P,glucosamine-6-phosphate [7],5.84e-05 ± 1.3e-05 s⁻¹
same,self-cleavage kobs at 10000 uM GlcN6P,glucosamine-6-phosphate [5],6.91e-05 ± 2.9e-05 s⁻¹
C68G U69C,kcat,glucosamine-6-phosphate [1],1.67e-05 ± 1.9e-06 s⁻¹
same,self-cleavage kobs at 10000 uM GlcN6P,glucosamine-6-phosphate [5],< 1e-05 s⁻¹
U30A A36U,kcat,glucosamine-6-phosphate [1],< 1e-05 s⁻¹
same,self-cleavage kobs at 640 uM GlcN6P,glucosamine-6-phosphate [6],< 1e-05 s⁻¹
G40A A42U,kcat,glucosamine-6-phosphate [1],7.24e-05 ± 1.6e-05 s⁻¹
same,self-cleavage kobs at 2500 uM GlcN6P,glucosamine-6-phosphate [7],7.53e-05 ± 1.2e-05 s⁻¹
same,self-cleavage kobs at 10000 uM GlcN6P,glucosamine-6-phosphate [5],5.75e-05 ± 1.2e-05 s⁻¹
G40A A42C,kcat,glucosamine-6-phosphate [1],2.78e-05 ± 3.3e-06 s⁻¹
same,KM,glucosamine-6-phosphate [2],1680 ± 670 µM
same,self-cleavage kobs at 160 uM GlcN6P,glucosamine-6-phosphate [4],< 1e-05 s⁻¹
C8U C71U,kcat,glucosamine-6-phosphate [1],< 1e-05 s⁻¹
same,KM,glucosamine-6-phosphate [2],25 ± 11 µM
same,self-cleavage kobs at 640 uM GlcN6P,glucosamine-6-phosphate [6],< 1e-05 s⁻¹
U31A U54G,kcat,glucosamine-6-phosphate [1],0.0208 ± 0.0046 s⁻¹
same,KM,glucosamine-6-phosphate [2],3520 ± 990 µM
same,self-cleavage kobs at 40 uM GlcN6P,glucosamine-6-phosphate [3],0.00027 ± 3.9e-05 s⁻¹
same,self-cleavage kobs at 160 uM GlcN6P,glucosamine-6-phosphate [4],0.00075 ± 0.00015 s⁻¹
same,self-cleavage kobs at 640 uM GlcN6P,glucosamine-6-phosphate [6],0.00291 ± 0.00094 s⁻¹
same,self-cleavage kobs at 2500 uM GlcN6P,glucosamine-6-phosphate [7],0.016 ± 0.0066 s⁻¹
same,self-cleavage kobs at 10000 uM GlcN6P,glucosamine-6-phosphate [5],0.0152 ± 0.0024 s⁻¹
U49C C61U,kcat,glucosamine-6-phosphate [1],1.01e-05 ± 1.5e-06 s⁻¹
same,self-cleavage kobs at 10000 uM GlcN6P,glucosamine-6-phosphate [5],< 1e-05 s⁻¹
G29U,kcat,glucosamine-6-phosphate [1],0.00859 ± 0.00066 s⁻¹
same,KM,glucosamine-6-phosphate [2],1570 ± 140 µM
same,self-cleavage kobs at 40 uM GlcN6P,glucosamine-6-phosphate [3],0.000218 ± 3.7e-06 s⁻¹
same,self-cleavage kobs at 160 uM GlcN6P,glucosamine-6-phosphate [4],0.000677 ± 5.2e-05 s⁻¹
same,self-cleavage kobs at 640 uM GlcN6P,glucosamine-6-phosphate [6],0.00232 ± 8.4e-05 s⁻¹
same,self-cleavage kobs at 2500 uM GlcN6P,glucosamine-6-phosphate [7],0.01 ± 0.0028 s⁻¹
same,self-cleavage kobs at 10000 uM GlcN6P,glucosamine-6-phosphate [5],0.00757 ± 0.00024 s⁻¹
A39U G44U,kcat,glucosamine-6-phosphate [1],0.00106 ± 0.00049 s⁻¹
same,self-cleavage kobs at 40 uM GlcN6P,glucosamine-6-phosphate [3],8.33e-05 ± 6.8e-06 s⁻¹
same,self-cleavage kobs at 160 uM GlcN6P,glucosamine-6-phosphate [4],0.000143 ± 1.3e-05 s⁻¹
same,self-cleavage kobs at 640 uM GlcN6P,glucosamine-6-phosphate [6],0.000437 ± 3e-05 s⁻¹
same,self-cleavage kobs at 2500 uM GlcN6P,glucosamine-6-phosphate [7],0.000955 ± 9.3e-05 s⁻¹
G29U G43A,kcat,glucosamine-6-phosphate [1],< 1e-05 s⁻¹
same,self-cleavage kobs at 40 uM GlcN6P,glucosamine-6-phosphate [3],< 1e-05 s⁻¹
same,self-cleavage kobs at 160 uM GlcN6P,glucosamine-6-phosphate [4],< 1e-05 s⁻¹
A53G U65G,kcat,glucosamine-6-phosphate [1],0.00217 ± 0.00093 s⁻¹
same,self-cleavage kobs at 40 uM GlcN6P,glucosamine-6-phosphate [3],9.01e-05 ± 2.5e-05 s⁻¹
same,self-cleavage kobs at 160 uM GlcN6P,glucosamine-6-phosphate [4],0.000202 ± 4e-05 s⁻¹
same,self-cleavage kobs at 640 uM GlcN6P,glucosamine-6-phosphate [6],0.000884 ± 0.00018 s⁻¹
same,self-cleavage kobs at 2500 uM GlcN6P,glucosamine-6-phosphate [7],0.00134 ± 0.00033 s⁻¹

# Source: the supplement of paper PMC7125110
